Data as given in doi:10.1101/2024.11.17.623997.
Like-named read-outs stand apart in the source and are kept apart here.

Legend:
[1] = target: AcrVIB1 (R. anatipestifer); test: other fluorescence titration
[2] = target: AcrVIB1 (R. anatipestifer); test: SEC-MALS
[3] = target: AcrVIB1-His (R. anatipestifer); test: MST
[4] = target: T1, PbuCas13b (UniProt E6K398 1-1127); test: MST
T1 sequence: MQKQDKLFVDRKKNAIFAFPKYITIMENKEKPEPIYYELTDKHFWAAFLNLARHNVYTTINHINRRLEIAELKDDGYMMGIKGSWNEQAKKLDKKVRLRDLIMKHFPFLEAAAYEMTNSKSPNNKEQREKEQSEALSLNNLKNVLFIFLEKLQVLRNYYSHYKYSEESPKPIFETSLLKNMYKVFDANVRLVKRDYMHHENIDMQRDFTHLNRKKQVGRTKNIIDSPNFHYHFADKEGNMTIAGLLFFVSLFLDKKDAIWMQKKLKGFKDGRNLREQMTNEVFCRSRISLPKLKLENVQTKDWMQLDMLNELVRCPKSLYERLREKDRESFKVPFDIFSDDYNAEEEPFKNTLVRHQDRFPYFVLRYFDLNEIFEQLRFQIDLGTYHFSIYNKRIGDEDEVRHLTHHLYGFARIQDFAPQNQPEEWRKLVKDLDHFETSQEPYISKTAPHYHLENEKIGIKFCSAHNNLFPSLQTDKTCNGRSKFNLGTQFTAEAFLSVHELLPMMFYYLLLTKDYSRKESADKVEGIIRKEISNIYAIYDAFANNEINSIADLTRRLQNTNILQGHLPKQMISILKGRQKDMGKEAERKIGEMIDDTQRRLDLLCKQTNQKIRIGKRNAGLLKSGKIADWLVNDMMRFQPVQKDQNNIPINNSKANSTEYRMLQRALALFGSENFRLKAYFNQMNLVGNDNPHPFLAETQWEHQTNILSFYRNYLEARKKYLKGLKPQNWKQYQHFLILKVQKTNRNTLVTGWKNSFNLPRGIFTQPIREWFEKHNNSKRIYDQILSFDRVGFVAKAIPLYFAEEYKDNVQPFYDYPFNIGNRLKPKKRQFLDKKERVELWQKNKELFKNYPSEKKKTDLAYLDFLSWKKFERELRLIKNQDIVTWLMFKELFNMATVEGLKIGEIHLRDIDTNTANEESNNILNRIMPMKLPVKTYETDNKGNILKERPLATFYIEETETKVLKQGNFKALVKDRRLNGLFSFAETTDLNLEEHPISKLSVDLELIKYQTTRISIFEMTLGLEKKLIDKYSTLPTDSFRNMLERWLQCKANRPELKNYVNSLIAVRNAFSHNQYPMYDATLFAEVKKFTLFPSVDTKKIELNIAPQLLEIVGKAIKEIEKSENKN

[5] = target: T1, PbuCas13b; test: MST; remark: listed apart in the source

**Q.** For “PbuCas13b Helical-2 domain (residues 579 - 747) (domain or fragment)”, which Kd [1] is on record?
**A.** The Kd was 251 nM.

**Q.** What about the stoichiometry N [2] of the same molecule?
**A.** The stoichiometry N was 1.

**Q.** How did the Kd [3] turn out when PbuCas13b (enzyme) was run?
**A.** Its Kd is 44 nM.

B1: crRNA-1 processed (KW-RNA-002) (structured_RNA)
RNA: CGUCGCCGUCCAGCUCGACCAGGAUGGGAAGUUGCAUCUGCCUUCUUUUUGAAAGGUAAAAACAAC
**Q.** Which Kd [4] does the source give for B1 here?
**A.** The Kd was ~1000 nM.

B2: crRNA-1 processed / target RNA 1 (KW-RNA-005) (mixed)
RNA 1: CGUCGCCGUCCAGCUCGACCAGGAUGGGAAGUUGCAUCUGCCUUCUUUUUGAAAGGUAAAAACAAC
RNA 2: ACUGGCGUUGUUCCCAUCCUGGUCGAGCUGGACGGCGACGUAAACGGCCA
**Q.** How did the Kd [5] turn out when B2 was run?
**A.** Its Kd is 85 nM.
